Experimental data as given in article PMC10119312, “Structural insights into RNase J that plays an essential role in Mycobacterium tuberculosis RNA metabolism” (Nature Communications, 2023).

Molecular target: the molecule itself
Assay: SEC

B1: Mycobacterium tuberculosis RNase J, full-length wild type (enzyme)
chain: MDVDLPPPGPLTSGGLRVTALGGINEIGRNMTVFEHLGRLLIIDCGVLFPGHDEPGVDLILPDMRHVEDRLDDIEALVLTHGHEDHIGAIPFLLKLRPDIPVVGSKFTLALVAEKCREYRITPVFVEVREGQSTRHGVFECEYFAVNHSTPDALAIAVYTGAGTILHTGDIKFDQLPPDGRPTDLPGMSRLGDTGVDLLLCDSTNAEIPGVGPSESEVGPTLHRLIRGADGRVIVACFASNVDRVQQIIDAAVALGRRVSFVGRSMVRNMRVARQLGFLRVADSDLIDIAAAETMAPDQVVLITTGTQGEPMSALSRMSRGEHRSITLTAGDLIVLSSSLIPGNEEAVFGVIDALSKIGARVVTNAQARVHVSGHAYAGELLFLYNGVRPRNVMPVHGTWRMLRANAKLAASTGVPQESILLAENGVSVDLVAGKASISGAVPVGKMFVDGLIAGDVGDITLGERLILSSGFVAVTVVVRRGTGQPLAAPHLHSRGFSEDPKALEPAVRKVEAELESLVAANVTDPIRIAQGVRRTVGKWVGETYRRQPMIVPTVIEV
notes: also called Mtb-RNase J; WT; not shown: 6xHis-sumo, N-terminal, cleaved
stoichiometry N: 2
